Experimental data: US12630600B2 (MEDIMMUNE LIMITED, priority 2022, dated 2026)
Starred links: 1 amine or outer side, 2 acyl side, 3 side chain; linkers in the order of their positions; H or OH if unused. Non-standard residues stand in square brackets, D forms with d. Groups on a side chain read outwards from the residue. No end group written: not given here. *: point of attachment. C20 diacid = O=C(O)CCCCCCCCCCCCCCCCCCC(=O)*; C18 diacid = O=C(O)CCCCCCCCCCCCCCCCC(=O)*; γGlu = O=C(O)[C@H](CCC(=O)[*:2])N[*:1]; αMeF = C[C@](N)(Cc1ccccc1)C(=O)O; (PEG)2 = polyethylene glycol 2; PEG4 = NCCOCCOCCOCCOCCC(=O)O; AEEA = NCCOCCOCC(=O)O; Aib = CC(C)(N)C(=O)O

B1: Peptide 264 (peptide)
peptide: H[Aib]HGS[αMeF]TSDVSK[αMeF]LDSRAAK([(PEG)2-(PEG)2-γGlu-γGlu-C20 diacid])D[αMeF]VQ[Aib]IANT-NH2
B2: Peptide 259 (peptide)
peptide: H[Aib]HGS[αMeF]TSDVSK[αMeF]LDSRAAK([AEEA-γGlu-AEEA-C18 diacid])D[αMeF]VQ[Aib]IANT-NH2
B3: Peptide 253 (peptide)
peptide: H[Aib]HGS[αMeF]TSDVSK[αMeF]LDSR[Aib]AK([AEEA-γGlu-C18 diacid])DFVESIANT-NH2
B4: Peptide 234 (peptide)
peptide: H[Aib]HGS[αMeF]TSDVSK[αMeF]LDSRAAK([AEEA-AEEA-γGlu-γGlu-C20 diacid])D[αMeF]VE[Aib]IANT-NH2
modifications: N-terminus assumed
SMILES: CC[C@H](C)[C@H](NC(=O)C(C)(C)NC(=O)[C@H](CCC(=O)O)NC(=O)[C@@H](NC(=O)[C@](C)(Cc1ccccc1)NC(=O)[C@H](CC(=O)O)NC(=O)[C@H](CCCCNC(=O)COCCOCCNC(=O)COCCOCCNC(=O)CC[C@H](NC(=O)CC[C@H](NC(=O)CCCCCCCCCCCCCCCCCCC(=O)O)C(=O)O)C(=O)O)NC(=O)[C@H](C)NC(=O)[C@H](C)NC(=O)[C@H](CCCNC(=N)N)NC(=O)[C@H](CO)NC(=O)[C@H](CC(=O)O)NC(=O)[C@H](CC(C)C)NC(=O)[C@](C)(Cc1ccccc1)NC(=O)[C@H](CCCCN)NC(=O)[C@H](CO)NC(=O)[C@@H](NC(=O)[C@H](CC(=O)O)NC(=O)[C@H](CO)NC(=O)[C@@H](NC(=O)[C@](C)(Cc1ccccc1)NC(=O)[C@H](CO)NC(=O)CNC(=O)[C@H](Cc1c[nH]cn1)NC(=O)C(C)(C)NC(=O)[C@@H](N)Cc1c[nH]cn1)[C@@H](C)O)C(C)C)C(C)C)C(=O)N[C@@H](C)C(=O)N[C@@H](CC(N)=O)C(=O)N[C@H](C(N)=O)[C@@H](C)O
B5: Peptide 254 (peptide)
peptide: H[Aib]HGS[αMeF]TSDVSK[αMeF]LDSR[Aib]AK([γGlu-C18 diacid])DFVESIANT-NH2
B6: Peptide 251 (peptide)
peptide: H[Aib]HGS[αMeF]TSDVSK[αMeF]LDSR[Aib]AK([AEEA-AEEA-γGlu-C18 diacid])DFVESIANT-NH2
B7: Peptide 232 (peptide)
peptide: H[Aib]HGS[αMeF]TSDVSK[αMeF]LDSRAAKD[αMeF]VQ[Aib]IANT-NH2
modifications: not fully specified (residue 20)
B8: Peptide 244 (peptide)
peptide: H[Aib]HGS[αMeF]TSDVSK[αMeF]LDSRAAK([AEEA-AEEA-γGlu-γGlu-C20 diacid])D[αMeF]VQSIANT-NH2
modifications: N-terminus assumed
SMILES: CC[C@H](C)[C@H](NC(=O)[C@H](CO)NC(=O)[C@H](CCC(N)=O)NC(=O)[C@@H](NC(=O)[C@](C)(Cc1ccccc1)NC(=O)[C@H](CC(=O)O)NC(=O)[C@H](CCCCNC(=O)COCCOCCNC(=O)COCCOCCNC(=O)CC[C@H](NC(=O)CC[C@H](NC(=O)CCCCCCCCCCCCCCCCCCC(=O)O)C(=O)O)C(=O)O)NC(=O)[C@H](C)NC(=O)[C@H](C)NC(=O)[C@H](CCCNC(=N)N)NC(=O)[C@H](CO)NC(=O)[C@H](CC(=O)O)NC(=O)[C@H](CC(C)C)NC(=O)[C@](C)(Cc1ccccc1)NC(=O)[C@H](CCCCN)NC(=O)[C@H](CO)NC(=O)[C@@H](NC(=O)[C@H](CC(=O)O)NC(=O)[C@H](CO)NC(=O)[C@@H](NC(=O)[C@](C)(Cc1ccccc1)NC(=O)[C@H](CO)NC(=O)CNC(=O)[C@H](Cc1c[nH]cn1)NC(=O)C(C)(C)NC(=O)[C@@H](N)Cc1c[nH]cn1)[C@@H](C)O)C(C)C)C(C)C)C(=O)N[C@@H](C)C(=O)N[C@@H](CC(N)=O)C(=O)N[C@H](C(N)=O)[C@@H](C)O
B9: Peptide 267 (peptide)
peptide: H[Aib]HGS[αMeF]TSDVSK[αMeF]LDSRAAK([PEG4-γGlu-C20 diacid])D[αMeF]VQ[Aib]IANT-NH2
B10: Peptide 262 (peptide)
peptide: H[Aib]HGS[αMeF]TSDVSK[αMeF]LDSRAAK([AEEA-γGlu-C18 diacid])D[αMeF]VQ[Aib]IANT-NH2
B11: Peptide 266 (peptide)
peptide: H[Aib]HGS[αMeF]TSDVSK[αMeF]LDSRAAK([AEEA-γGlu-AEEA-γGlu-C20 diacid])D[αMeF]VQ[Aib]IANT-NH2
B12: Peptide 265 (peptide)
peptide: H[Aib]HGS[αMeF]TSDVSK[αMeF]LDSRAAK([AEEA-γGlu-AEEA-C20 diacid])D[αMeF]VQ[Aib]IANT-NH2
B13: Peptide 230 (peptide)
peptide: H[Aib]HGS[αMeF]TSDVSK[αMeF]LDSRAAKD[αMeF]VQ[Aib]IANT-NH2
modifications: not fully specified (residue 20)
B14: Peptide 263 (peptide)
peptide: H[Aib]HGS[αMeF]TSDVSK[αMeF]LDSRAAK([PEG4-γGlu-γGlu-C18 diacid])D[αMeF]VQ[Aib]IANT-NH2
B15: Peptide 256 (peptide)
peptide: H[Aib]HGS[αMeF]TSDVSK[αMeF]LDSQAAK([AEEA-AEEA-γGlu-γGlu-C20 diacid])D[αMeF]VQ[Aib]IANT-NH2
B16: Peptide 260 (peptide)
peptide: H[Aib]HGS[αMeF]TSDVSK[αMeF]LDSRAAK([AEEA-γGlu-AEEA-γGlu-C18 diacid])D[αMeF]VQ[Aib]IANT-NH2
B17: Peptide 261 (peptide)
peptide: H[Aib]HGS[αMeF]TSDVSK[αMeF]LDSRAAK([PEG4-γGlu-C18 diacid])D[αMeF]VQ[Aib]IANT-NH2
modifications: N-terminus assumed
SMILES: CC[C@H](C)[C@H](NC(=O)C(C)(C)NC(=O)[C@H](CCC(N)=O)NC(=O)[C@@H](NC(=O)[C@](C)(Cc1ccccc1)NC(=O)[C@H](CC(=O)O)NC(=O)[C@H](CCCCNC(=O)CCOCCOCCOCCOCCNC(=O)CC[C@H](NC(=O)CCCCCCCCCCCCCCCCC(=O)O)C(=O)O)NC(=O)[C@H](C)NC(=O)[C@H](C)NC(=O)[C@H](CCCNC(=N)N)NC(=O)[C@H](CO)NC(=O)[C@H](CC(=O)O)NC(=O)[C@H](CC(C)C)NC(=O)[C@](C)(Cc1ccccc1)NC(=O)[C@H](CCCCN)NC(=O)[C@H](CO)NC(=O)[C@@H](NC(=O)[C@H](CC(=O)O)NC(=O)[C@H](CO)NC(=O)[C@@H](NC(=O)[C@](C)(Cc1ccccc1)NC(=O)[C@H](CO)NC(=O)CNC(=O)[C@H](Cc1c[nH]cn1)NC(=O)C(C)(C)NC(=O)[C@@H](N)Cc1c[nH]cn1)[C@@H](C)O)C(C)C)C(C)C)C(=O)N[C@@H](C)C(=O)N[C@@H](CC(N)=O)C(=O)N[C@H](C(N)=O)[C@@H](C)O
B18: Peptide 258 (peptide)
peptide: H[Aib]HGS[αMeF]TSDVSK[αMeF]LDSRAAK([(PEG)2-(PEG)2-γGlu-γGlu-C18 diacid])D[αMeF]VQ[Aib]IANT-NH2
B19: Peptide 246 (peptide)
peptide: H[Aib]HGS[αMeF]TSDVSK[αMeF]LDSRAAK([AEEA-AEEA-γGlu-γGlu-C20 diacid])D[αMeF]VESIANT-NH2
modifications: N-terminus assumed
SMILES: CC[C@H](C)[C@H](NC(=O)[C@H](CO)NC(=O)[C@H](CCC(=O)O)NC(=O)[C@@H](NC(=O)[C@](C)(Cc1ccccc1)NC(=O)[C@H](CC(=O)O)NC(=O)[C@H](CCCCNC(=O)COCCOCCNC(=O)COCCOCCNC(=O)CC[C@H](NC(=O)CC[C@H](NC(=O)CCCCCCCCCCCCCCCCCCC(=O)O)C(=O)O)C(=O)O)NC(=O)[C@H](C)NC(=O)[C@H](C)NC(=O)[C@H](CCCNC(=N)N)NC(=O)[C@H](CO)NC(=O)[C@H](CC(=O)O)NC(=O)[C@H](CC(C)C)NC(=O)[C@](C)(Cc1ccccc1)NC(=O)[C@H](CCCCN)NC(=O)[C@H](CO)NC(=O)[C@@H](NC(=O)[C@H](CC(=O)O)NC(=O)[C@H](CO)NC(=O)[C@@H](NC(=O)[C@](C)(Cc1ccccc1)NC(=O)[C@H](CO)NC(=O)CNC(=O)[C@H](Cc1c[nH]cn1)NC(=O)C(C)(C)NC(=O)[C@@H](N)Cc1c[nH]cn1)[C@@H](C)O)C(C)C)C(C)C)C(=O)N[C@@H](C)C(=O)N[C@@H](CC(N)=O)C(=O)N[C@H](C(N)=O)[C@@H](C)O

molecular target: human GLP-1 receptor (human, UniProt P43220); experiment: cell-based or functional assay

Row | hGLP-1R EC50 (pM) | Binder
1 | 69.5 | B1
2 | 19.1 | B2
3 | 75.5 | B3
4 | 68 | B4
5 | 102 | B5
6 | 79.8 | B6
7 | 110 | B7
8 | 143 | B8
9 | 65.6 | B9
10 | 13 | B10
11 | 66.5 | B11
12 | 71.2 | B12
13 | 170 | B13
14 | 25.4 | B14
15 | 346 | B15
16 | 33.1 | B16
17 | 16.2 | B17
18 | 34 | B18
19 | 320 | B19

molecular target: human glucagon receptor (human, UniProt P47871); experiment: cell-based or functional assay

Row | hGluc-R EC50 (pM) | Binder
20 | 297 | B1
21 | 34.8 | B2
22 | 53.1 | B3
23 | 1290 | B4
24 | 125 | B5
25 | 248 | B6
26 | 1020 | B7
27 | 420 | B8
28 | 128 | B9
29 | 11.7 | B10
30 | 293 | B11
31 | 131 | B12
32 | 37.1 | B13
33 | 64.6 | B14
34 | 1310 | B15
35 | 76.9 | B16
36 | 29.4 | B17
37 | 93.1 | B18
38 | 557 | B19
